From patent US20250388666A1 (BRIGHAM AND WOMEN S HOSPITAL, published 2025) come the findings set out here.

This test deals with T1, CEACAM1 (Sino Biological) (human, UniProt P13688 35-428, limits assumed).
T1 construct: may be the same as CEACAM1-HIS; also called hCEACAM1; biotinylated soluble CEACAM1
T1 sequence: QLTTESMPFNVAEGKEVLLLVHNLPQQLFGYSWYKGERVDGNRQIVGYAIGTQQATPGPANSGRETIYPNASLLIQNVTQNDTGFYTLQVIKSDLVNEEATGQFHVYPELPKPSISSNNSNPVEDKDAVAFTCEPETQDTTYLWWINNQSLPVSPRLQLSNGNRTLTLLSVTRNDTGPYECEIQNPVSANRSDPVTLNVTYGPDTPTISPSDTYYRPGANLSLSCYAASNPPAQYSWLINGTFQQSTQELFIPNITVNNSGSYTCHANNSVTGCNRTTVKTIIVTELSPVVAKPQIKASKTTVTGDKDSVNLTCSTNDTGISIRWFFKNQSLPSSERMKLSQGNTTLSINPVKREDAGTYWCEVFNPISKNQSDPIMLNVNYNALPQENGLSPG
As to the kind of experiment: SPR single-cycle. As for the experimental part: To assess the binding of the humanized affinity matured IgGs, single cycle kinetics analysis was performed on crude supernatants using a Biacore T200 running Biacore T200 Control Software V2.0.1 and Biacore T200 Evaluation Software V3.0 (Uppsala, Sweden). Antibodies were diluted in HBS-P+ (GE Healthcare) to a final concentration of […]. At the start of each cycle, antibodies were loaded onto Fc2, Fc3 and Fc4 of the Protein A chip (GE Healthcare). IgGs were captured at a flow rate of 10 μl/min to give an immobilization level (RL) of ˜100 RU (a level calculated to obtain an Rmax of ˜50-150 RU once the analyte is bound). The surface was then allowed to stabilize. Single cycle kinetics data was obtained with CEACAM1 as the analyte at a flow rate of […] to minimize any potential mass transfer effects. Multiple repeats with the parent (VH2 N56Q/Vκ4 S27(f)A) antibody were performed to check the stability of the surface and analyte over the kinetic cycles. The signal from the reference channel Fc1 (no antibody) was subtracted from that of Fc2, Fc3 and Fc4 to correct for differences in non-specific binding to the reference surface. A three point, two-fold dilution range from 25 nM to 100 nM CEACAM 1 without regeneration between each concentration was used. The signal from each antibody blank run (no CEACAM1) was subtracted to correct for differences in surface stability. The association phase for the three injections of increasing concentrations of CEACAM1 was monitored for 200 seconds each time and a single dissociation phase was measured for 300 seconds following the last injection of CEACAM1. Regeneration of the Protein A surface was conducted using two injections of 10 mM glycine-HCL pH 1.5 followed by a stabilization period of 240 seconds.

B1: He6/L4#2 (antibody, IgG4, V domains shown)
VH: EVQLLESGGGLVQPGGSLRLSCAASGFSFSDYYLYWVRQAPGKGLEWVATISVGGGQTSYADSVKGRFTISRDNSKNTLYLQMNSLRAEDTAMYYCARARTYGPAWFAYWGQGTLVTVSS
VL: DIVMTQSPDSLAVSLGERATINCKSSQSLLNSANQKNYLAWYQQKPGQPPKLLIYFASTRESGVPDRFSGSGSGTDFTLTISSLQAEDVAVYYCQSHYPYPYTFGGGTKVEIK
notes: IgG4 S241P, kappa
Consider B1, for which the Kd is 146 nM and the “fold better than Parent (KD)” value came out at 3.78 fold.

B2: He9/L18 (antibody, IgG4, V domains shown)
VH: EVQLLESGGGLVQPGGSLRLSCAASGFSFSDYYLYWVRQAPGKGLEWVATISVGGGQTSYADSVKGRFTISRDNSKNTLYLQMNSLRAEDTAMYYCARAMYYGPAWFAYWGQGTLVTVSS
VL: DIVMTQSPDSLAVSLGERATINCKSSQSLLNSANQKNYLAWYQQKPGQPPKLLIYFASTRESGVPDRFSGSGSGTDFTLTISSLQAEDVAVYYCQSHFPYPFTFGGGTKVEIK
notes: IgG4 S241P, kappa
B2: the Kd came out at 36 nM and the “fold better than Parent (KD)” value is 4.4 fold.

B3: He6/L16 (antibody, IgG4, V domains shown)
VH: EVQLLESGGGLVQPGGSLRLSCAASGFSFSDYYLYWVRQAPGKGLEWVATISVGGGQTSYADSVKGRFTISRDNSKNTLYLQMNSLRAEDTAMYYCARARTYGPAWFAYWGQGTLVTVSS
VL: DIVMTQSPDSLAVSLGERATINCKSSQSLLNSANQKNYLAWYQQKPGQPPKLLIYFASTRESGVPDRFSGSGSGTDFTLTISSLQAEDVAVYYCQSHYPYPFTFGGGTKVEIK
notes: IgG4 S241P, kappa
B3: the Kd amounted to 66 nM and the “fold better than Parent (KD)” value was determined as 2.41 fold.

B4: He6/L20 (antibody, IgG4, V domains shown)
VH: EVQLLESGGGLVQPGGSLRLSCAASGFSFSDYYLYWVRQAPGKGLEWVATISVGGGQTSYADSVKGRFTISRDNSKNTLYLQMNSLRAEDTAMYYCARARTYGPAWFAYWGQGTLVTVSS
VL: DIVMTQSPDSLAVSLGERATINCKSSQSLLNSANQKNYLAWYQQKPGQPPKLLIYFASTRESGVPDRFSGSGSGTDFTLTISSLQAEDVAVYYCQSHFPYPLTFGGGTKVEIK
notes: IgG4 S241P, kappa
As for B4, binding was put at a Kd of 89 nM and the “fold better than Parent (KD)” value amounted to 1.79 fold.

B5: He6/L5 (antibody, IgG4, V domains shown)
VH: EVQLLESGGGLVQPGGSLRLSCAASGFSFSDYYLYWVRQAPGKGLEWVATISVGGGQTSYADSVKGRFTISRDNSKNTLYLQMNSLRAEDTAMYYCARARTYGPAWFAYWGQGTLVTVSS
VL: DIVMTQSPDSLAVSLGERATINCKSSQSLLNSANQKNYLAWYQQKPGQPPKLLIYFASTRESGVPDRFSGSGSGTDFTLTISSLQAEDVAVYYCQSHYPFAFTFGGGTKVEIK
notes: IgG4 S241P, kappa
In the case of B5, binding was put at a Kd of 84 nM and the “fold better than Parent (KD)” value is 1.89 fold.

B6: He9/L16 (antibody, IgG4, V domains shown)
VH: EVQLLESGGGLVQPGGSLRLSCAASGFSFSDYYLYWVRQAPGKGLEWVATISVGGGQTSYADSVKGRFTISRDNSKNTLYLQMNSLRAEDTAMYYCARAMYYGPAWFAYWGQGTLVTVSS
VL: DIVMTQSPDSLAVSLGERATINCKSSQSLLNSANQKNYLAWYQQKPGQPPKLLIYFASTRESGVPDRFSGSGSGTDFTLTISSLQAEDVAVYYCQSHYPYPFTFGGGTKVEIK
notes: IgG4 S241P, kappa
For the molecule B6, the Kd came out at 32 nM and the “fold better than Parent (KD)” value amounted to 5.05 fold.

B7: He6/L6 (antibody, IgG4, V domains shown)
VH: EVQLLESGGGLVQPGGSLRLSCAASGFSFSDYYLYWVRQAPGKGLEWVATISVGGGQTSYADSVKGRFTISRDNSKNTLYLQMNSLRAEDTAMYYCARARTYGPAWFAYWGQGTLVTVSS
VL: DIVMTQSPDSLAVSLGERATINCKSSQSLLNSANQKNYLAWYQQKPGQPPKLLIYFASTRESGVPDRFSGSGSGTDFTLTISSLQAEDVAVYYCQSHYPFSFTFGGGTKVEIK
notes: IgG4 S241P, kappa
For B7, the Kd was 89 nM and the “fold better than Parent (KD)” value was determined as 1.78 fold.

B8: He9/L2 (antibody, IgG4, V domains shown)
VH: EVQLLESGGGLVQPGGSLRLSCAASGFSFSDYYLYWVRQAPGKGLEWVATISVGGGQTSYADSVKGRFTISRDNSKNTLYLQMNSLRAEDTAMYYCARAMYYGPAWFAYWGQGTLVTVSS
VL: DIVMTQSPDSLAVSLGERATINCKSSQSLLNSANQKNYLAWYQQKPGQPPKLLIYFASTRESGVPDRFSGSGSGTDFTLTISSLQAEDVAVYYCQSHYPFPYTFGGGTKVEIK
notes: IgG4 S241P, kappa
On to B8, for which the Kd stood at 70 nM and the “fold better than Parent (KD)” value amounted to 2.27 fold.

B9: He6/L17 (antibody, IgG4, V domains shown)
VH: EVQLLESGGGLVQPGGSLRLSCAASGFSFSDYYLYWVRQAPGKGLEWVATISVGGGQTSYADSVKGRFTISRDNSKNTLYLQMNSLRAEDTAMYYCARARTYGPAWFAYWGQGTLVTVSS
VL: DIVMTQSPDSLAVSLGERATINCKSSQSLLNSANQKNYLAWYQQKPGQPPKLLIYFASTRESGVPDRFSGSGSGTDFTLTISSLQAEDVAVYYCQSHYPYPYTFGGGTKVEIK
notes: IgG4 S241P, kappa
For the molecule B9, binding was put at a Kd of 91 nM and the “fold better than Parent (KD)” value amounted to 1.75 fold.

B10: He6/L18 (antibody, IgG4, V domains shown)
VH: EVQLLESGGGLVQPGGSLRLSCAASGFSFSDYYLYWVRQAPGKGLEWVATISVGGGQTSYADSVKGRFTISRDNSKNTLYLQMNSLRAEDTAMYYCARARTYGPAWFAYWGQGTLVTVSS
VL: DIVMTQSPDSLAVSLGERATINCKSSQSLLNSANQKNYLAWYQQKPGQPPKLLIYFASTRESGVPDRFSGSGSGTDFTLTISSLQAEDVAVYYCQSHFPYPFTFGGGTKVEIK
notes: IgG4 S241P, kappa
As for B10, the Kd was found to be 83 nM and the “fold better than Parent (KD)” value was 1.92 fold.

B11: He9/L4 #1 (antibody, IgG4, V domains shown)
VH: EVQLLESGGGLVQPGGSLRLSCAASGFSFSDYYLYWVRQAPGKGLEWVATISVGGGQTSYADSVKGRFTISRDNSKNTLYLQMNSLRAEDTAMYYCARAMYYGPAWFAYWGQGTLVTVSS
VL: DIVMTQSPDSLAVSLGERATINCKSSQSLLNSANQKNYLAWYQQKPGQPPKLLIYFASTRESGVPDRFSGSGSGTDFTLTISSLQAEDVAVYYCQSHFPYYYTFGGGTKVEIK
notes: IgG4 S241P, kappa
In the case of B11, binding was put at a Kd of 78 nM and the “fold better than Parent (KD)” value turned out to be 2.05 fold.

B12: He9/L5 (antibody, IgG4, V domains shown)
VH: EVQLLESGGGLVQPGGSLRLSCAASGFSFSDYYLYWVRQAPGKGLEWVATISVGGGQTSYADSVKGRFTISRDNSKNTLYLQMNSLRAEDTAMYYCARAMYYGPAWFAYWGQGTLVTVSS
VL: DIVMTQSPDSLAVSLGERATINCKSSQSLLNSANQKNYLAWYQQKPGQPPKLLIYFASTRESGVPDRFSGSGSGTDFTLTISSLQAEDVAVYYCQSHYPFAFTFGGGTKVEIK
notes: IgG4 S241P, kappa
Turning to B12, the equilibrium dissociation constant (Kd) stood at 44 nM and the “fold better than Parent (KD)” value was determined as 3.61 fold.

B13: He6/L19 (antibody, IgG4, V domains shown)
VH: EVQLLESGGGLVQPGGSLRLSCAASGFSFSDYYLYWVRQAPGKGLEWVATISVGGGQTSYADSVKGRFTISRDNSKNTLYLQMNSLRAEDTAMYYCARARTYGPAWFAYWGQGTLVTVSS
VL: DIVMTQSPDSLAVSLGERATINCKSSQSLLNSANQKNYLAWYQQKPGQPPKLLIYFASTRESGVPDRFSGSGSGTDFTLTISSLQAEDVAVYYCQSHIYPNFTFGGGTKVEIK
notes: IgG4 S241P, kappa
In the case of B13, the Kd is 237 nM and the “fold better than Parent (KD)” value amounted to 0.67 fold.

B14: He9/L19 (antibody, IgG4, V domains shown)
VH: EVQLLESGGGLVQPGGSLRLSCAASGFSFSDYYLYWVRQAPGKGLEWVATISVGGGQTSYADSVKGRFTISRDNSKNTLYLQMNSLRAEDTAMYYCARAMYYGPAWFAYWGQGTLVTVSS
VL: DIVMTQSPDSLAVSLGERATINCKSSQSLLNSANQKNYLAWYQQKPGQPPKLLIYFASTRESGVPDRFSGSGSGTDFTLTISSLQAEDVAVYYCQSHIYPNFTFGGGTKVEIK
notes: IgG4 S241P, kappa
B14: the Kd stood at 193 nM and the “fold better than Parent (KD)” value was 0.82 fold.

B15: He6/Parent VL (antibody, IgG4, V domains shown)
VH: EVQLLESGGGLVQPGGSLRLSCAASGFSFSDYYLYWVRQAPGKGLEWVATISVGGGQTSYADSVKGRFTISRDNSKNTLYLQMNSLRAEDTAMYYCARARTYGPAWFAYWGQGTLVTVSS
VL: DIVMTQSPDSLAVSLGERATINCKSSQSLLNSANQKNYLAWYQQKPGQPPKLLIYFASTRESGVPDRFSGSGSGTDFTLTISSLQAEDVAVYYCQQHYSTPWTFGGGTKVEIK
notes: IgG4 S241P, kappa
As for B15, the affinity, expressed as Kd, was 125 nM and the “fold better than Parent (KD)” value is 1.27 fold.

B16: He9/L1 (antibody, IgG4, V domains shown)
VH: EVQLLESGGGLVQPGGSLRLSCAASGFSFSDYYLYWVRQAPGKGLEWVATISVGGGQTSYADSVKGRFTISRDNSKNTLYLQMNSLRAEDTAMYYCARAMYYGPAWFAYWGQGTLVTVSS
VL: DIVMTQSPDSLAVSLGERATINCKSSQSLLNSANQKNYLAWYQQKPGQPPKLLIYFASTRESGVPDRFSGSGSGTDFTLTISSLQAEDVAVYYCQSHYPFYYTFGGGTKVEIK
notes: IgG4 S241P, kappa
On to B16, for which binding was characterised by a dissociation constant (Kd) of 69 nM and the “fold better than Parent (KD)” value is 2.32 fold.
